According to US20100297122A1:

Biological target: zTNF4 (UniProt Q9Y275)
Assay: cell-based or functional assay

Atacicept, sequence (chain): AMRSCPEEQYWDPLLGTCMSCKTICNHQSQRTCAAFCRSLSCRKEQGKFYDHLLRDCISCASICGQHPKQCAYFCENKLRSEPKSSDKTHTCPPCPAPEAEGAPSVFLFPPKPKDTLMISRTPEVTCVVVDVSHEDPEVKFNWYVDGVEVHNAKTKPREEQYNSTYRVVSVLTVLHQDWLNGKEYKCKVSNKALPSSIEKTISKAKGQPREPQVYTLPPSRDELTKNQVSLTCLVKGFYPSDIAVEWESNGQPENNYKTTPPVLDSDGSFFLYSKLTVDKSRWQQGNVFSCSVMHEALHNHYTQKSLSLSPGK
UniProt Q9Y275, sequence (Q9Y275 134-285 limits assumed): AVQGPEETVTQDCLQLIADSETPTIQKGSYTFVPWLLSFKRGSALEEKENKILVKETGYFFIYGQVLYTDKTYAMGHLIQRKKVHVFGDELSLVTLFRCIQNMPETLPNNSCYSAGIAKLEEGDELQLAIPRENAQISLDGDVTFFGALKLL

## TACI-Fc5 (Fc fusion)
  Bioassay (U/mL); 21A, 70 mg/mL; 2-8° C.; 4 w: 366000 U/mL
  Bioassay (U/mL); 21A, 70 mg/mL; 2-8° C.; 8 w: 319000 U/mL
  Bioassay (U/mL); 21A, 70 mg/mL; 2-8° C.; 13 w: 388000 U/mL
  Bioassay (U/mL); 21A, 70 mg/mL; 2-8° C.; time 0: 348000 U/mL
  Bioassay (U/mL); 21A, 70 mg/mL; 25° C.; 4 w: 312000 U/mL
  Bioassay (U/mL); 21A, 70 mg/mL; 25° C.; 8 w: 279000 U/mL
  Bioassay (U/mL); 21A, 70 mg/mL; 25° C.; 13 w: 305000 U/mL
  Bioassay (U/mL); 21A, 70 mg/mL; 25° C.; time 0: 348000 U/mL
  Bioassay (U/mL); 21B, 70 mg/mL; 2-8° C.; 4 w: 318000 U/mL
  Bioassay (U/mL); 21B, 70 mg/mL; 2-8° C.; 8 w: 290000 U/mL
  Bioassay (U/mL); 21B, 70 mg/mL; 2-8° C.; 13 w: 358000 U/mL
  Bioassay (U/mL); 21B, 70 mg/mL; 2-8° C.; time 0: 336000 U/mL
  Bioassay (U/mL); 21B, 70 mg/mL; 25° C.; 4 w: 302000 U/mL
  Bioassay (U/mL); 21B, 70 mg/mL; 25° C.; 8 w: 268000 U/mL
  Bioassay (U/mL); 21B, 70 mg/mL; 25° C.; 13 w: 343000 U/mL
  Bioassay (U/mL); 21B, 70 mg/mL; 25° C.; time 0: 336000 U/mL
  Bioassay (U/mL); 21C, 70 mg/mL; 2-8° C.; 4 w: 334000 U/mL
  Bioassay (U/mL); 21C, 70 mg/mL; 2-8° C.; 8 w: 307000 U/mL
  Bioassay (U/mL); 21C, 70 mg/mL; 2-8° C.; 13 w: 335000 U/mL
  Bioassay (U/mL); 21C, 70 mg/mL; 2-8° C.; time 0: 323000 U/mL
  Bioassay (U/mL); 21C, 70 mg/mL; 25° C.; 4 w: 316000 U/mL
  Bioassay (U/mL); 21C, 70 mg/mL; 25° C.; 8 w: 269000 U/mL
  Bioassay (U/mL); 21C, 70 mg/mL; 25° C.; 13 w: 318000 U/mL
  Bioassay (U/mL); 21C, 70 mg/mL; 25° C.; time 0: 323000 U/mL
  Bioassay (U/mL); 21D, 100 mg/mL; 2-8° C.; 4 w: 452000 U/mL
  Bioassay (U/mL); 21D, 100 mg/mL; 2-8° C.; 8 w: 432000 U/mL
  Bioassay (U/mL); 21D, 100 mg/mL; 2-8° C.; 13 w: 490000 U/mL
  Bioassay (U/mL); 21D, 100 mg/mL; 2-8° C.; time 0: 461000 U/mL
  Bioassay (U/mL); 21D, 100 mg/mL; 25° C.; 4 w: 509000 U/mL
  Bioassay (U/mL); 21D, 100 mg/mL; 25° C.; 8 w: 431000 U/mL
  Bioassay (U/mL); 21D, 100 mg/mL; 25° C.; 13 w: 419000 U/mL
  Bioassay (U/mL); 21D, 100 mg/mL; 25° C.; time 0: 461000 U/mL
  Bioassay (U/mL); 21E, 100 mg/mL; 2-8° C.; 4 w: 439000 U/mL
  Bioassay (U/mL); 21E, 100 mg/mL; 2-8° C.; 8 w: 436000 U/mL
  Bioassay (U/mL); 21E, 100 mg/mL; 2-8° C.; 13 w: 470000 U/mL
  Bioassay (U/mL); 21E, 100 mg/mL; 2-8° C.; time 0: 459000 U/mL
  Bioassay (U/mL); 21E, 100 mg/mL; 25° C.; 4 w: 442000 U/mL
  Bioassay (U/mL); 21E, 100 mg/mL; 25° C.; 8 w: 396000 U/mL
  Bioassay (U/mL); 21E, 100 mg/mL; 25° C.; 13 w: 405000 U/mL
  Bioassay (U/mL); 21E, 100 mg/mL; 25° C.; time 0: 459000 U/mL
  Bioassay (U/mL); 21F, 100 mg/mL; 2-8° C.; 4 w: 470000 U/mL
  Bioassay (U/mL); 21F, 100 mg/mL; 2-8° C.; 8 w: 407000 U/mL
  Bioassay (U/mL); 21F, 100 mg/mL; 2-8° C.; 13 w: 424000 U/mL
  Bioassay (U/mL); 21F, 100 mg/mL; 2-8° C.; time 0: 456000 U/mL
  Bioassay (U/mL); 21F, 100 mg/mL; 25° C.; 4 w: 449000 U/mL
  Bioassay (U/mL); 21F, 100 mg/mL; 25° C.; 8 w: 387000 U/mL
  Bioassay (U/mL); 21F, 100 mg/mL; 25° C.; 13 w: 476000 U/mL
  Bioassay (U/mL); 21F, 100 mg/mL; 25° C.; time 0: 456000 U/mL
  Bioassay (U/mL); 21G, 100 mg/mL; 2-8° C.; 4 w: 543000 U/mL
  Bioassay (U/mL); 21G, 100 mg/mL; 2-8° C.; 8 w: 401000 U/mL
  Bioassay (U/mL); 21G, 100 mg/mL; 2-8° C.; 13 w: 445000 U/mL
  Bioassay (U/mL); 21G, 100 mg/mL; 2-8° C.; time 0: 494000 U/mL
  Bioassay (U/mL); 21G, 100 mg/mL; 25° C.; 4 w: 497000 U/mL
  Bioassay (U/mL); 21G, 100 mg/mL; 25° C.; 8 w: 433000 U/mL
  Bioassay (U/mL); 21G, 100 mg/mL; 25° C.; 13 w: 441000 U/mL
  Bioassay (U/mL); 21G, 100 mg/mL; 25° C.; time 0: 494000 U/mL
  Bioassay (U/mL); 21H, 100 mg/mL; 2-8° C.; 4 w: 446000 U/mL
  Bioassay (U/mL); 21H, 100 mg/mL; 2-8° C.; 8 w: 388000 U/mL
  Bioassay (U/mL); 21H, 100 mg/mL; 2-8° C.; 13 w: 445000 U/mL
  Bioassay (U/mL); 21H, 100 mg/mL; 2-8° C.; time 0: 472000 U/mL
  Bioassay (U/mL); 21H, 100 mg/mL; 25° C.; 4 w: 465000 U/mL
  Bioassay (U/mL); 21H, 100 mg/mL; 25° C.; 8 w: 366000 U/mL
  Bioassay (U/mL); 21H, 100 mg/mL; 25° C.; 13 w: 434000 U/mL
  Bioassay (U/mL); 21H, 100 mg/mL; 25° C.; time 0: 472000 U/mL

## Atacicept (Fc fusion)
  Biological activity (U/mL); Atacicept 25/1; 1 Mo +5° C.: 137000 U/mL
  Biological activity (U/mL); Atacicept 25/1; 1 Mo+25° C.: 134000 U/mL
  Biological activity (U/mL); Atacicept 25/1; 2 Mo +5° C.: 135000 U/mL
  Biological activity (U/mL); Atacicept 25/1; 2 Mo+25° C.: 125000 U/mL
  Biological activity (U/mL); Atacicept 25/1; 3 Mo +5° C.: 136000 U/mL
  Biological activity (U/mL); Atacicept 25/1; 3 Mo+25° C.: 132000 U/mL
  Biological activity (U/mL); Atacicept 25/1; 6 Mo +5° C.: 127000 U/mL
  Biological activity (U/mL); Atacicept 25/1; 6 Mo+25° C.: 118000 U/mL
  Biological activity (U/mL); Atacicept 25/1; 9 Mo +5° C.: 147000 U/mL
  Biological activity (U/mL); Atacicept 25/1; 12 Mo +5° C.: 131000 U/mL
  Biological activity (U/mL); Atacicept 25/1; 18 Mo +5° C.: 108000 U/mL
  Biological activity (U/mL); Atacicept 25/1; Zero Time (5° C. block): 140000 U/mL
  Biological activity (U/mL); Atacicept 25/1; Zero Time (25° C. block): 140000 U/mL
  Biological activity (U/mL); Atacicept 25/1.2; 1 Mo +5° C.: 116000 U/mL
  Biological activity (U/mL); Atacicept 25/1.2; 1 Mo+25° C.: 114000 U/mL
  Biological activity (U/mL); Atacicept 25/1.2; 2 Mo +5° C.: 126000 U/mL
  Biological activity (U/mL); Atacicept 25/1.2; 2 Mo+25° C.: 118000 U/mL
  Biological activity (U/mL); Atacicept 25/1.2; 3 Mo +5° C.: 122000 U/mL
  Biological activity (U/mL); Atacicept 25/1.2; 3 Mo+25° C.: 114000 U/mL
  Biological activity (U/mL); Atacicept 25/1.2; 6 Mo +5° C.: 115000 U/mL
  Biological activity (U/mL); Atacicept 25/1.2; 6 Mo+25° C.: 103000 U/mL
  Biological activity (U/mL); Atacicept 25/1.2; 9 Mo +5° C.: 124000 U/mL
  Biological activity (U/mL); Atacicept 25/1.2; 12 Mo +5° C.: 106000 U/mL
  Biological activity (U/mL); Atacicept 25/1.2; 18 Mo +5° C.: 113000 U/mL
  Biological activity (U/mL); Atacicept 25/1.2; Zero Time (5° C. block): 112000 U/mL
  Biological activity (U/mL); Atacicept 25/1.2; Zero Time (25° C. block): 112000 U/mL
  Biological activity (U/mL); Atacicept 75/1; 1 Mo +5° C.: 410000 U/mL
  Biological activity (U/mL); Atacicept 75/1; 1 Mo+25° C.: 388000 U/mL
  Biological activity (U/mL); Atacicept 75/1; 2 Mo +5° C.: 380000 U/mL
  Biological activity (U/mL); Atacicept 75/1; 2 Mo+25° C.: 337000 U/mL
  Biological activity (U/mL); Atacicept 75/1; 3 Mo +5° C.: 374000 U/mL
  Biological activity (U/mL); Atacicept 75/1; 3 Mo+25° C.: 365000 U/mL
  Biological activity (U/mL); Atacicept 75/1; 6 Mo +5° C.: 364000 U/mL
  Biological activity (U/mL); Atacicept 75/1; 6 Mo+25° C.: 328000 U/mL
  Biological activity (U/mL); Atacicept 75/1; 9 Mo +5° C.: 468000 U/mL
  Biological activity (U/mL); Atacicept 75/1; 12 Mo +5° C.: 346000 U/mL
  Biological activity (U/mL); Atacicept 75/1; Zero Time (5° C. block): 423000 U/mL
  Biological activity (U/mL); Atacicept 75/1; Zero Time (25° C. block): 423000 U/mL
  Biological activity (U/mL); Atacicept 150/1; 1 Mo +5° C.: 775000 U/mL
  Biological activity (U/mL); Atacicept 150/1; 1 Mo+25° C.: 777000 U/mL
  Biological activity (U/mL); Atacicept 150/1; 2 Mo +5° C.: 755000 U/mL
  Biological activity (U/mL); Atacicept 150/1; 2 Mo+25° C.: 720000 U/mL
  Biological activity (U/mL); Atacicept 150/1; 3 Mo +5° C.: 819000 U/mL
  Biological activity (U/mL); Atacicept 150/1; 3 Mo+25° C.: 761000 U/mL
  Biological activity (U/mL); Atacicept 150/1; 6 Mo +5° C.: 815000 U/mL
  Biological activity (U/mL); Atacicept 150/1; 6 Mo+25° C.: 677000 U/mL
  Biological activity (U/mL); Atacicept 150/1; 9 Mo +5° C.: 843000 U/mL
  Biological activity (U/mL); Atacicept 150/1; 12 Mo +5° C.: 810000 U/mL
  Biological activity (U/mL); Atacicept 150/1; 18 Mo +5° C.: 565000 U/mL
  Biological activity (U/mL); Atacicept 150/1; Zero Time (5° C. block): 836000 U/mL
  Biological activity (U/mL); Atacicept 150/1; Zero Time (25° C. block): 836000 U/mL
  Biological activity (U/mL); Atacicept 150/1.2; 1 Mo +5° C.: 643000 U/mL
  Biological activity (U/mL); Atacicept 150/1.2; 1 Mo+25° C.: 695000 U/mL
  Biological activity (U/mL); Atacicept 150/1.2; 2 Mo +5° C.: 743000 U/mL
  Biological activity (U/mL); Atacicept 150/1.2; 2 Mo+25° C.: 697000 U/mL
  Biological activity (U/mL); Atacicept 150/1.2; 3 Mo +5° C.: 695000 U/mL
  Biological activity (U/mL); Atacicept 150/1.2; 3 Mo+25° C.: 607000 U/mL
  Biological activity (U/mL); Atacicept 150/1.2; 6 Mo +5° C.: 645000 U/mL
  Biological activity (U/mL); Atacicept 150/1.2; 6 Mo+25° C.: 587000 U/mL
  Biological activity (U/mL); Atacicept 150/1.2; 9 Mo +5° C.: 714000 U/mL
  Biological activity (U/mL); Atacicept 150/1.2; 12 Mo +5° C.: 620000 U/mL
  Biological activity (U/mL); Atacicept 150/1.2; 18 Mo +5° C.: 551000 U/mL
  Biological activity (U/mL); Atacicept 150/1.2; Zero Time (5° C. block): 647000 U/mL
  Biological activity (U/mL); Atacicept 150/1.2; Zero Time (25° C. block): 647000 U/mL
